Laboratory results from the supplement of paper PMC10126150.
± gives the standard deviation of the averaged measurements.

Test system: ATP
Test: switch fluorescence ratio, 500 uM ATP over buffer (Cy3 cluster intensity, sum of 5 cycles each) (fold (ratio)); higher = stronger signal-on switching upon ATP binding; sequences stand for … in TCGTCGGCAGCGTCAGATGTGTATAAGAGACAGTTTTTTTTTTTTTTTTTTTTTTTTT…TC
Details: aptamer strand: ATP DNA aptamer (quencher-CACCTGGGGGAGTATTGCGGAGGAAGG + anchor), 100 nM annealed; ATP concentration: 500 uM
Summary of the method: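 Cy3-labelled switching-strand clusters on a modified Illumina MiSeq flow-cell were annealed to 100 nM quencher-labelled ATP aptamer and imaged first in selection buffer, then after 15 min with 500 uM ATP at 22 °C. NaOH stripping and re-annealing separated each of five buffer/ATP cycles, and clusters outside 100-1000 RFU were excluded. The fluorescence ratio sums target-cycle Cy3 intensity over buffer-cycle Cy3 intensity per cluster and averages it per switch-domain sequence.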
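Note: ATP exposure 15 min at 22 °C before imaging.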

Sequence | switch fluorescence ratio
CGTGGATTTT | 0.972 ± 0.034
CGTGGCCGTT | 0.978 ± 0.095
CGTGGCCTGG | 0.994 ± 0.024
CGTGGCGCGG | 0.9942 ± 0.0096
CGTGGCTAAG | 0.971 ± 0.046
CGTGGGAATA | 0.9992 ± 0.0082
CGTGGGAGAA | 1.09 ± 0.084
CGTGGGAGGG | 0.99 ± 0.011
CGTGGGGACT | 0.991 ± 0.027
CGTGGGGCGA | 1.03 ± 0.025
CGTGGGGGTA | 0.996 ± 0.025
CGTGGGTAGA | 1.06 ± 0.09
CGTGGTGGGG | 0.992 ± 0.015
CGTGGTTATG | 0.975 ± 0.06
CGTGTAAATA | 0.995 ± 0.015
CGTGTAAGAT | 1.03 ± 0.047
CGTGTAATTC | 1.03 ± 0.1
CGTGTACCGG | 1.01 ± 0.0092
CGTGTAGGGG | 1.03 ± 0.017
CGTGTAGTCC | 1.1 ± 0.086
CGTGTGAGAG | 0.986 ± 0.021
CGTGTGGTTC | 1.02 ± 0.036

Sequence | switch fluorescence ratio
CGTGTGTACC | 1.007 ± 0.0049
CGTGTGTGTA | 1.07 ± 0.05
CGTGTGTTGC | 1 ± 0.024
CGTGTTTGCG | 0.985 ± 0.031
CGTGTTTTTG | 0.986 ± 0.02
CGTTAAAGAT | 1.03 ± 0.023
CGTTAAGGCT | 0.973 ± 0.015
CGTTAAGTTC | 0.993 ± 0.029
CGTTAATTCG | 1 ± 0.028
CGTTACAGGT | 1.04 ± 0.028
CGTTACTTAG | 1.02 ± 0.011
CGTTACTTTT | 1.02 ± 0.053
CGTTAGTTTT | 0.9924 ± 0.0021
CGTTATAAAG | 0.9811 ± 0.0012
CGTTATACTG | 1.07 ± 0.027
CGTTATAGTC | 1.02 ± 0.047
CGTTATCGTC | 0.99 ± 0.0099
CGTTCATTAG | 1.003 ± 0.0076
CGTTCTAGTT | 1.001 ± 0.01
CGTTCTATGT | 1.01 ± 0.02
CGTTCTCCCC | 1.03 ± 0.068
CGTTCTGGAG | 1.2 ± 0.038

Sequence | switch fluorescence ratio
CGTTGAAAGT | 0.991 ± 0.015
CGTTGATAAG | 0.997 ± 0.022
CGTTGATCAG | 0.976 ± 0.024
CGTTGATGGT | 0.992 ± 0.02
CGTTGCATTG | 1.03 ± 0.017
CGTTGCTGAT | 0.972 ± 0.035
CGTTGGAATA | 1.01 ± 0.042
CGTTGGAATG | 0.981 ± 0.015
CGTTGGCCGT | 1.03 ± 0.085
CGTTGGGACG | 1.0042 ± 0.00087
CGTTGGGAGG | 0.979 ± 0.016
CGTTGGGGCA | 1 ± 0.077
CGTTGGGGCG | 0.931 ± 0.035
CGTTGGGGTG | 1.03 ± 0.063
CGTTGGGTTC | 0.969 ± 0.013
CGTTGTGGCA | 1 ± 0.028
CGTTGTGTAG | 1.02 ± 0.013
CGTTGTTCGT | 1 ± 0.0015
CGTTGTTGTA | 1.01 ± 0.02
CGTTGTTTTG | 0.9848 ± 0.0091
CGTTTAATGG | 0.984 ± 0.0086
CGTTTACGCC | 1 ± 0.046

Sequence | switch fluorescence ratio
CGTTTAGTGG | 0.9781 ± 0.0089
CGTTTATTG | 0.9967 ± 0.0085
CGTTTCGCAG | 1.03 ± 0.068
CGTTTCTAAG | 0.967 ± 0.03
CGTTTCTTTT | 0.997 ± 0.02
CGTTTGGTAG | 0.964 ± 0.019
CGTTTGTACT | 1.022 ± 0.0013
CGTTTGTGCA | 0.98971 ± 6.6e-05
CGTTTGTGTG | 1.01 ± 0.011
CGTTTTCCAG | 0.985 ± 0.03
CGTTTTGCGG | 1.04 ± 0.052
CGTTTTGGTT | 0.976 ± 0.021
CGTTTTTTGT | 0.9843 ± 0.002
CTAAAATGCT | 1.042 ± 0.0088
CTAAACGTCA | 1.1 ± 0.051
CTAAAGTGGG | 0.973 ± 0.015
CTAAATTTTA | 0.989 ± 0.019
CTAACAGCGA | 1.297 ± 0.0027
CTAACCATCT | 1.028 ± 0.0038
